Key:
[1] = molecular target: T1, glutathione S-transferase (GST)-HmtA chimeric construct, biotinylated in vivo (Methanobrevibacter smithii, biotinylated in vivo by bacteria at the N-terminus (GST) end); assay: ELISA, biotinylated GST-HmtA immobilised on coated plates
T1 construct: The construct was immobilised on coated polystyrene plates; also called GCJ construct; HmtA containing construct; not shown: glutathione S-transferase (GST)
Protocol: (§1) The binding properties of all antibodies were tested by ELISA. A glutathione S-transferase (GST)-HmtA chimeric construct was prepared and further biotinylated in vivo by bacteria at the N-terminus (GST) end of the HmtA construct (GCJ construct). The construct was immobilized in coated polystyrene plates. A control chimeric GST construct (GCH) lacking HmtA was prepared, biotinylated and immobilized analogously.

[2] = molecular target: T1, glutathione S-transferase (GST)-HmtA …; assay: ELISA (figure legend)
Protocol: as §1

T1 sequence (chain, as listed by the source mutant): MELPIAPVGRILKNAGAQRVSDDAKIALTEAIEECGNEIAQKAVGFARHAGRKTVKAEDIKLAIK

binding result [1] | binding result [2] | Binder
binds |  | scFv of monoclonal antibody mAb2 (N-VH-linker-VL-C) (scFv, Selected from the Tomlinson I,J human scFv library (pIT2 vector); also called scFv based on mAb2) scFv: EVQLVQSGAEVKKPGESLKISCKGSGYSFTSYWIGWVRQMPGKGLEWMGIIYPGDSDTRYSPSFQGQVTISADKSISTAYLQWSSLKASDTAMYYCARLATGPHGIASAGRRYLDYWGQGTLVTVSSGGGGSGGGGSGGGGSTQSVLTQPPSVSAAPGQKVTISCSGSSSNIGNNYVSWYQQLPGTAPKLLIYDNNKRPSGIPDRFSGSKSGTSATLGITGLQTGDEADYYCGTWDSRGFGVFGGGTKLTVLG
binds |  | scFv of monoclonal antibody mAb1 (N-VH-linker-VL-C) (scFv, Selected from the Tomlinson I,J human scFv library (pIT2 vector); also called scFv based on mAb1) scFv: EVQLVQSGAEVKKPGESLKISCKGSGYSFTSYWIGWVRQMPGKGLEWMGIIYPGDSDTRYSPSFQGQVTISADKSISTAYLQWSSLKASDTAMYYCARAGFRGYCSGGSCYRLPYWGQGTLVTVSSGGGGSGGGGSGGGGSTQSVLTQPPSVSAAPGQKVTISCSGSSSNIGNNYVSWYQQLPGTAPKLLIYDNNKRPSGIPDRFSGSKSGTSATLGITGLQTGDEADYYCGTWDVLAARSVFGGGTKLTVLG
 | binds | scFv of monoclonal antibody mAb5 (N-VH-linker-VL-C) (scFv, Selected from the Tomlinson I,J human scFv library (pIT2 vector); also called scFv based on mAb5) scFv: EVQLVQSGAEVKKPGESLKISCKGSGYSFTSYWIGWVRQMPGKGLEWMGIIYPGDSDTRYSPSFQGQVTISADKSISTAYLQWSSLKASDTAMYYCARAKVGQRYSSGRYFFDYWGQGTLVTVSSGGGGSGGGGSGGGGSTEIVLTQSPATLSLSPGERATLSCRASQSVSSYLAWYQQKPGQAPRLLIYDASNRATGIPARFSGSGSGTDFTLTISSLEPEDFAVYYCQQGAKDNPMTFGQGTKVEIKR
